Assay results reported in US20260242419A1, “A CYCLIC PEPTIDE FOR TRAPPING INTERLEUKIN-1 BETA” (Merck Sharp & Dohme LLC, priority 2023, published 2026).
Non-standard residues stand in square brackets, D forms with d. Primed or numbered codes have the meaning given here. Trp(βS-Me,4-F) = C[C@@H](c1c[nH]c2cccc(F)c12)[C@H](N)C(=O)O; Bip(4'-COOH) = N[C@@H](Cc1ccc(-c2ccc(C(=O)O)cc2)cc1)C(=O)O; dPro(4R-Bzl(4-F)) = O=C(O)[C@H]1C[C@@H](Cc2ccc(F)cc2)CN1; Ala(pyrimidin-5-yl) = N[C@@H](Cc1cncnc1)C(=O)O; Phe(4-COOH) = N[C@@H](Cc1ccc(C(=O)O)cc1)C(=O)O; Pro(cis-4-F) = O=C(O)[C@@H]1C[C@H](F)CN1; aIle = CC[C@@H](C)[C@H](N)C(=O)O; 4Pal = N[C@@H](Cc1ccncc1)C(=O)O; αMeK = C[C@](N)(CCCCN)C(=O)O; dαMeDab′ = not defined here; hSer = N[C@@H](CCO)C(=O)O; Dab = NCC[C@H](N)C(=O)O; Aib = CC(C)(N)C(=O)O; Sar = CNCC(=O)O

B1: SEQ ID NO: 136 (peptide)
peptide: cyclo([Bip(4'-COOH)][4Pal][Phe(4-COOH)]G[Pro(cis-4-F)][Trp(βS-Me,4-F)][Aib][aIle]W[αMeK][Ala(pyrimidin-5-yl)]Q[Dab]G[dPro(4R-Bzl(4-F))])
modifications: ring closure inferred; not fully specified (bridges); printed as Bip4CO2H-4Pal-Phe4COOH-G-Proc4F-SbMeW4F-Aib-alI-W-aMeK-PyrimAla-Q-Dab-G-dProc4Bn4F
B2: SEQ ID NO: 131 (peptide)
peptide: cyclo([Bip(4'-COOH)][4Pal][Phe(4-COOH)]G[Pro(cis-4-F)][Trp(βS-Me,4-F)][dαMeDab′]SW[Aib][Ala(pyrimidin-5-yl)]Q[Dab]G[dPro(4R-Bzl(4-F))])
modifications: ring closure inferred; not fully specified (bridges); printed as Bip4CO2H-4Pal-Phe4COOH-G-Proc4F-SbMeW4F-daMeDab-S-W-Aib-PyrimAla-Q-Dab-G-dProc4Bn4F
B3: SEQ ID NO: 133 (peptide)
peptide: cyclo([Bip(4'-COOH)][4Pal][Phe(4-COOH)]G[Pro(cis-4-F)][Trp(βS-Me,4-F)][Aib][hSer]W[αMeK][Ala(pyrimidin-5-yl)]Q[Dab]G[dPro(4R-Bzl(4-F))])
modifications: ring closure inferred; not fully specified (bridges); printed as Bip4CO2H-4Pal-Phe4COOH-G-Proc4F-SbMeW4F-Aib-hS-W-aMeK-PyrimAla-Q-Dab-G-dProc4Bn4F
B4: SEQ ID NO: 135 (peptide)
peptide: cyclo([Bip(4'-COOH)][4Pal][Phe(4-COOH)]G[Pro(cis-4-F)][Trp(βS-Me,4-F)][Aib]VW[αMeK][Ala(pyrimidin-5-yl)]Q[Dab]G[dPro(4R-Bzl(4-F))])
modifications: ring closure inferred; not fully specified (bridges); printed as Bip4CO2H-4Pal-Phe4COOH-G-Proc4F-SbMeW4F-Aib-V-W-aMeK-PyrimAla-Q-Dab-G-dProc4Bn4F
B5: SEQ ID NO: 132 (peptide)
peptide: cyclo([Bip(4'-COOH)][4Pal][Phe(4-COOH)]G[Pro(cis-4-F)][Trp(βS-Me,4-F)][Aib]EW[αMeK][Ala(pyrimidin-5-yl)]Q[Dab][Sar][dPro(4R-Bzl(4-F))])
modifications: ring closure inferred; not fully specified (bridges); printed as Bip4CO2H-4Pal-Phe4COOH-G-Proc4F-SbMeW4F-Aib-E-W-aMeK-PyrimAla-Q-Dab-Sar-dProc4Bn4F
B6: SEQ ID NO: 130 (peptide)
peptide: cyclo([Bip(4'-COOH)][4Pal][Phe(4-COOH)]G[Pro(cis-4-F)][Trp(βS-Me,4-F)][Aib]SW[αMeDab][Ala(pyrimidin-5-yl)]Q[Dab]G[dPro(4R-Bzl(4-F))])
modifications: ring closure inferred; not fully specified (bridges); printed as Bip4CO2H-4Pal-Phe4COOH-G-Proc4F-SbMeW4F-Aib-S-W-aMeDab-PyrimAla-Q-Dab-G-dProc4Bn4F
B7: SEQ ID NO: 134 (peptide)
peptide: cyclo([Bip(4'-COOH)][4Pal][Phe(4-COOH)]G[Pro(cis-4-F)][Trp(βS-Me,4-F)][Aib]AW[αMeK][Ala(pyrimidin-5-yl)]Q[Dab]G[dPro(4R-Bzl(4-F))])
modifications: ring closure inferred; not fully specified (bridges); printed as Bip4CO2H-4Pal-Phe4COOH-G-Proc4F-SbMeW4F-Aib-A-W-aMeK-PyrimAla-Q-Dab-G-dProc4Bn4F

What follows are binders tested against Recombinant human IL-1β (BioLegend 579404) (human, UniProt P01584 117-269) (assay: cell-based or functional assay).

| Binder | MRC5 IC50 |
| --- | --- |
| B1 | 0.027 nM |
| B2 | 0.019 nM |
| B3 | 0.021 nM |
| B4 | 0.035 nM |
| B5 | 0.015 nM |
| B6 | 0.039 nM |
| B7 | 0.021 nM |
